B1: FBXO34 (parent)
chain: ASSVESTLPVLEASSWKKQVSHDF
B2: OAS1 (parent)
chain: YIGTHEYPHFSHRPSTLQAASTPQ

Variants of: B1
Assay: protein stability index of a GFP-peptide fusion (GPS, HEK-293T) (PSI 1-6); higher = more stable
Conditions: c terminus: a fixed tail appended
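Note: lentivirally expressed fusions sorted by FACS into six bins by GFP to DsRed ratio, PSI derived from sequencing read proportions per bin multiplied by bin number.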

In order of falling protein stability index:
1. AESVESTLPVLEASSWKKQVSHDF [S2E]  3.94
2. ASEVESTLPVLEASSWKKQVSHDF [S3E]  3.72
3. ASSEESTLPVLEASSWKKQVSHDF [V4E]  3.67
4. ASSQESTLPVLEASSWKKQVSHDF [V4Q]  3.53
5. APSVESTLPVLEASSWKKQVSHDF [S2P]  3.46
6. ASSAESTLPVLEASSWKKQVSHDF [V4A]  3.39
7. ASSHESTLPVLEASSWKKQVSHDF [V4H]  3.39
8. ATSVESTLPVLEASSWKKQVSHDF [S2T]  3.39
9. ASHVESTLPVLEASSWKKQVSHDF [S3H]  3.38
10. SSSVESTLPVLEASSWKKQVSHDF [A1S]  3.36
11. LSSVESTLPVLEASSWKKQVSHDF [A1L]  3.35
12. DSSVESTLPVLEASSWKKQVSHDF [A1D]  3.32
13. ASPVESTLPVLEASSWKKQVSHDF [S3P]  3.31
14. ASDVESTLPVLEASSWKKQVSHDF [S3D]  3.29
15. ASGVESTLPVLEASSWKKQVSHDF [S3G]  3.27
16. ASTVESTLPVLEASSWKKQVSHDF [S3T]  3.22
17. ADSVESTLPVLEASSWKKQVSHDF [S2D]  3.18
18. ASSGESTLPVLEASSWKKQVSHDF [V4G]  3.15
19. AQSVESTLPVLEASSWKKQVSHDF [S2Q]  3.09
20. ASNVESTLPVLEASSWKKQVSHDF [S3N]  3.07
21. AKSVESTLPVLEASSWKKQVSHDF [S2K]  3.04
22. ASSSESTLPVLEASSWKKQVSHDF [V4S]  3.01
23. GSSVESTLPVLEASSWKKQVSHDF [A1G]  2.99
24. RSSVESTLPVLEASSWKKQVSHDF [A1R]  2.97
25. AVSVESTLPVLEASSWKKQVSHDF [S2V]  2.92
26. NSSVESTLPVLEASSWKKQVSHDF [A1N]  2.9
27. ASSTESTLPVLEASSWKKQVSHDF [V4T]  2.88
28. ASQVESTLPVLEASSWKKQVSHDF [S3Q]  2.88
29. ESSVESTLPVLEASSWKKQVSHDF [A1E]  2.83
30. AGSVESTLPVLEASSWKKQVSHDF [S2G]  2.81
31. AASVESTLPVLEASSWKKQVSHDF [S2A]  2.81
32. ARSVESTLPVLEASSWKKQVSHDF [S2R]  2.8
33. TSSVESTLPVLEASSWKKQVSHDF [A1T]  2.79
34. ASSPESTLPVLEASSWKKQVSHDF [V4P]  2.77
35. ASSIESTLPVLEASSWKKQVSHDF [V4I]  2.75
36. MSSVESTLPVLEASSWKKQVSHDF [A1M]  2.71
37. ASIVESTLPVLEASSWKKQVSHDF [S3I]  2.69
38. ASSVASTLPVLEASSWKKQVSHDF [E5A]  2.68
39. ASSRESTLPVLEASSWKKQVSHDF [V4R]  2.64
40. PSSVESTLPVLEASSWKKQVSHDF [A1P]  2.64
41. ASMVESTLPVLEASSWKKQVSHDF [S3M]  2.63
42. ASLVESTLPVLEASSWKKQVSHDF [S3L]  2.62
43. ANSVESTLPVLEASSWKKQVSHDF [S2N]  2.58
44. AWSVESTLPVLEASSWKKQVSHDF [S2W]  2.56
45. ASKVESTLPVLEASSWKKQVSHDF [S3K]  2.56
46. ASSMESTLPVLEASSWKKQVSHDF [V4M]  2.51
47. ASSWESTLPVLEASSWKKQVSHDF [V4W]  2.5
48. ASVVESTLPVLEASSWKKQVSHDF [S3V]  2.49
49. ASSYESTLPVLEASSWKKQVSHDF [V4Y]  2.46
50. ASYVESTLPVLEASSWKKQVSHDF [S3Y]  2.46
51. ASSCESTLPVLEASSWKKQVSHDF [V4C]  2.45
52. QSSVESTLPVLEASSWKKQVSHDF [A1Q]  2.44
53. ASSDESTLPVLEASSWKKQVSHDF [V4D]  2.4
54. AHSVESTLPVLEASSWKKQVSHDF [S2H]  2.4
55. ASFVESTLPVLEASSWKKQVSHDF [S3F]  2.38
56. AYSVESTLPVLEASSWKKQVSHDF [S2Y]  2.28
57. VSSVESTLPVLEASSWKKQVSHDF [A1V]  2.27
58. AISVESTLPVLEASSWKKQVSHDF [S2I]  2.26
59. ASCVESTLPVLEASSWKKQVSHDF [S3C]  2.19
60. FSSVESTLPVLEASSWKKQVSHDF [A1F]  2.11
61. ASSFESTLPVLEASSWKKQVSHDF [V4F]  2.1
62. KSSVESTLPVLEASSWKKQVSHDF [A1K]  2.1
63. CSSVESTLPVLEASSWKKQVSHDF [A1C]  2.1
64. ASWVESTLPVLEASSWKKQVSHDF [S3W]  2.02
65. ISSVESTLPVLEASSWKKQVSHDF [A1I]  1.95
66. AFSVESTLPVLEASSWKKQVSHDF [S2F]  1.92
67. ASAVESTLPVLEASSWKKQVSHDF [S3A]  1.86
68. ACSVESTLPVLEASSWKKQVSHDF [S2C]  1.85
69. YSSVESTLPVLEASSWKKQVSHDF [A1Y]  1.78
70. ALSVESTLPVLEASSWKKQVSHDF [S2L]  1.47

Variants of: B2
Assay: as above
Conditions: c terminus: a fixed tail appended

In order of falling protein stability index:
1. YIGTHEYPHFSHRPSTLQAASTTQ [P23T]  2.48
2. YIGTHEYPHFSHRPSTLQAASTPY [Q24Y]  2.4
3. YIGTHEYPHFSHRPSTLQAASTPL [Q24L]  2.29
4. YIGTHEYPHFSHRPSTLQAASTSQ [P23S]  2.27
5. YIGTHEYPHFSHRPSTLQAASTPE [Q24E]  2.25
6. YIGTHEYPHFSHRPSTLQAASTPW [Q24W]  2.25
7. YIGTHEYPHFSHRPSTLQAASTPV [Q24V]  2.2
8. YIGTHEYPHFSHRPSTLQAASTPG [Q24G]  2.2
9. YIGTHEYPHFSHRPSTLQAASTPH [Q24H]  2.15
10. YIGTHEYPHFSHRPSTLQAASTPN [Q24N]  2.07
11. YIGTHEYPHFSHRPSTLQAASTPD [Q24D]  2.06
12. YIGTHEYPHFSHRPSTLQAASTPT [Q24T]  2.04
13. YIGTHEYPHFSHRPSTLQAASTWQ [P23W]  1.97
14. YIGTHEYPHFSHRPSTLQAASTPS [Q24S]  1.94
15. YIGTHEYPHFSHRPSTLQAASTPI [Q24I]  1.92
16. YIGTHEYPHFSHRPSTLQAASTPM [Q24M]  1.87
17. YIGTHEYPHFSHRPSTLQAASTPR [Q24R]  1.86
18. YIGTHEYPHFSHRPSTLQAASTRQ [P23R]  1.86
19. YIGTHEYPHFSHRPSTLQAASTPK [Q24K]  1.81
20. YIGTHEYPHFSHRPSTLQAASTVQ [P23V]  1.81
21. YIGTHEYPHFSHRPSTLQAASTPF [Q24F]  1.77
22. YIGTHEYPHFSHRPSTLQAASTYQ [P23Y]  1.75
23. YIGTHEYPHFSHRPSTLQAASTPC [Q24C]  1.69
24. YIGTHEYPHFSHRPSTLQAASTPA [Q24A]  1.66

Source: the supplement of paper PMC10567573
